Columns and labels:
[1] = target: Ku70/80 full length (Homo sapiens, UniProt P12956;P13010 1-609;1-732); assay: EMSA; SAP EMSA: 105 mM KCl (400 bp) or 46 mM KCl (153 bp), 3 mM Tris-HCl pH 7.5, 0.1 mM EDTA, 3-4% glycerol, 15 min room temp, agarose (0.8% or 1.5%); Ku70/80 EMSA: 5; details: protein: recombinant; copies: 1;1
[2] = target: Ku70 SAP domain WT (Homo sapiens, UniProt P12956 539-609); assay: EMSA; 46 mM KCl; preferred over nucleosome; SAP EMSA: 105 mM KCl (400 bp) or 46 mM KCl (153 bp), 3 mM Tris-HCl pH 7.5, 0.1 mM EDTA, 3-4% glycerol, 15 min room temp, agarose (0.8% or 1.5%); Ku70/80 EMSA: 5; details: protein: recombinant; tags: none (His14-SUMObd cleaved)
Chain of Ku70 SAP domain WT (P12956 539-609): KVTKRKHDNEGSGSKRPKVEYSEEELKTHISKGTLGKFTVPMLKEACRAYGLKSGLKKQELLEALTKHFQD

[3] = target: Ku70/80-dSAP (Homo sapiens, UniProt P12956;P13010 1-544;1-732); assay: EMSA; higher shift than full length, multiple loading; SAP EMSA: 105 mM KCl (400 bp) or 46 mM KCl (153 bp), 3 mM Tris-HCl pH 7.5, 0.1 mM EDTA, 3-4% glycerol, 15 min room temp, agarose (0.8% or 1.5%); Ku70/80 EMSA: 5; details: protein: recombinant; copies: 1;1
Chain of Ku70/80-dSAP (P12956 1-544, chain 1 of 2): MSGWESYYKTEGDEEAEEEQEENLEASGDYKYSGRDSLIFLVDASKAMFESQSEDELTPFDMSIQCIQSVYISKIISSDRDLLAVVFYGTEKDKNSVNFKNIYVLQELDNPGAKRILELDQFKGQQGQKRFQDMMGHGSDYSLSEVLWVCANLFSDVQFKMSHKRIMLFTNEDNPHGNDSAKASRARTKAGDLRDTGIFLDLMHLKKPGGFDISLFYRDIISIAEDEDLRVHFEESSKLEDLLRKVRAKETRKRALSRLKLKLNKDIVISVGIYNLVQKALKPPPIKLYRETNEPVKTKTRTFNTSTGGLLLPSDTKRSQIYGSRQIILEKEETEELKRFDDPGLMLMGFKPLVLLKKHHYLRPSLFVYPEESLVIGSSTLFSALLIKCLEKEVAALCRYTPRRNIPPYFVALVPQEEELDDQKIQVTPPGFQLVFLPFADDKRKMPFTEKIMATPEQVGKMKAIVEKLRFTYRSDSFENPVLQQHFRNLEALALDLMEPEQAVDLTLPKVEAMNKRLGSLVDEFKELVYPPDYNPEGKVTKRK
Chain of Ku70/80-dSAP (P13010 whole entry, chain 2 of 2): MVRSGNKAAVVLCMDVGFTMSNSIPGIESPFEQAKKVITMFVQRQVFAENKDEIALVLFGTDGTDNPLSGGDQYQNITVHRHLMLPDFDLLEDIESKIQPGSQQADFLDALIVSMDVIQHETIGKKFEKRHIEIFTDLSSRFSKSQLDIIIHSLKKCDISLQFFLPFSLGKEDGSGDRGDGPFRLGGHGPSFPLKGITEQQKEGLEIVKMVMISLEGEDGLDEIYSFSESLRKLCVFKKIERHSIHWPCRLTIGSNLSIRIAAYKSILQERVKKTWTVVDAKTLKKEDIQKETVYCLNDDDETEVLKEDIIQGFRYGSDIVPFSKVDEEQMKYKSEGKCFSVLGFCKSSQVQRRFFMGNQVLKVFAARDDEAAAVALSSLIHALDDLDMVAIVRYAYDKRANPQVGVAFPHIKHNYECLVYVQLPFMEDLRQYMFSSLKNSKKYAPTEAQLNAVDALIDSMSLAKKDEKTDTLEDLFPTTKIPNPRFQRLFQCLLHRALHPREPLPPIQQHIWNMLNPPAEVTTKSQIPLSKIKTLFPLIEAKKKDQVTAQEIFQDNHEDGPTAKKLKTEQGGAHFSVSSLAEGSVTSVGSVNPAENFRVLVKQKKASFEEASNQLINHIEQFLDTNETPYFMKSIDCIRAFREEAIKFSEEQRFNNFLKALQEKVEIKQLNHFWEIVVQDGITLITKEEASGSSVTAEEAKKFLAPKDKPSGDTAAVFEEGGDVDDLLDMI

Measured: binding result

Chain of Ku70/80 full length (P12956 whole entry, chain 1 of 2, the tested form may be a part): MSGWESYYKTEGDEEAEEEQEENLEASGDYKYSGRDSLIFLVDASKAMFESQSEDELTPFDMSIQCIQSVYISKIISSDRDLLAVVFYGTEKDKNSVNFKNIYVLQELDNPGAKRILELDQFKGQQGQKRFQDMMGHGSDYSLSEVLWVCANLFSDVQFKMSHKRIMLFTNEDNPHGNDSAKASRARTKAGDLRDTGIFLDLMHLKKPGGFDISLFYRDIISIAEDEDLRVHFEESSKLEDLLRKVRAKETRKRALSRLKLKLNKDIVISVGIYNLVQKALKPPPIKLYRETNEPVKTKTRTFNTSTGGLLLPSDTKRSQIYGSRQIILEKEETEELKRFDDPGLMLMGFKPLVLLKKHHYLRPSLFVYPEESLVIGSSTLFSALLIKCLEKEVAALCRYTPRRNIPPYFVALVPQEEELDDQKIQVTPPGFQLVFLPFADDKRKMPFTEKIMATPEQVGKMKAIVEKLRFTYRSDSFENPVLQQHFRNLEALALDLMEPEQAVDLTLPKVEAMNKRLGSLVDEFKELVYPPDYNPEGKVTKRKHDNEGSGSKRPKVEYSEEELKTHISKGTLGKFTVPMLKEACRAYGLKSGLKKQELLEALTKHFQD
Chain of Ku70/80 full length (P13010 whole entry, chain 2 of 2, the tested form may be a part): as the sequence (P13010 whole entry, chain 2 of 2) above

B1: 153 bp free DNA (dsDNA)
DNA 1: ATCCTGGAGAATCCCGGTGCCGAGGCCGCTCAATTGGTCGTAGACAGCTCTAGCACCGCTTAAACGCACGTACGCGCTGTCCCCCGCGTTTTAACCGCCAAGGGGATTACTCCCTAGTCTCCAGGCACGTGTCAGATATATACATCCTGTGAT
DNA 2: ATCACAGGATGTATATATCTGACACGTGCCTGGAGACTAGGGAGTAATCCCCTTGGCGGTTAAAACGCGGGGGACAGCGCGTACGTGCGTTTAAGCGGTGCTAGAGCTGTCTACGACCAATTGAGCGGCCTCGGCACCGGGATTCTCCAGGAT
binds: [1] | [2] | [3]
